# Residue numbers refer to the chain shown, from its start.
# B1: 2G10.316 (antibody, human IgG1, kappa, N297G, V domains shown)
# VH: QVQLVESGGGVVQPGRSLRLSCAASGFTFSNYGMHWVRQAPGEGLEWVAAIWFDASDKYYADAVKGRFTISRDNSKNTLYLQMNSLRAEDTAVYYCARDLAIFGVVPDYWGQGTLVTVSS
# VL: EIVMTQSPATLSVSPGERATLSCRASQSVFRHLAWYQQKPGQAPRLLIYEAATRATGIPARFSGSGSGTEFTLTISSLQSEDFAVYYCQQYQNWPLTFGGGTKVEIKR
# notes: also called SS-26193
# B2: 2G10.336 (antibody, human IgG1, kappa, N297G, V domains shown)
# VH: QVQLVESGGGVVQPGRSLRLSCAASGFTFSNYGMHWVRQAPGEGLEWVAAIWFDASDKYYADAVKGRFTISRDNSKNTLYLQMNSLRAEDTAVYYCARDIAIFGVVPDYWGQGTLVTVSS
# VL: B1 VL with F30Q, R31S
# notes: also called SS-26213
# B3: 2G10.319 (antibody, human IgG1, kappa, N297G, V domains shown)
# VH: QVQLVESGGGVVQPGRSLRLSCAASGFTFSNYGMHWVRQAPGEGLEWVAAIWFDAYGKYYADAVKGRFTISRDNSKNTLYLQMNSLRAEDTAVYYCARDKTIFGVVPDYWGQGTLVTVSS
# VL: B1 VL
# B4: 2G10.314 (antibody, human IgG1, kappa, N297G, V domains shown)
# VH: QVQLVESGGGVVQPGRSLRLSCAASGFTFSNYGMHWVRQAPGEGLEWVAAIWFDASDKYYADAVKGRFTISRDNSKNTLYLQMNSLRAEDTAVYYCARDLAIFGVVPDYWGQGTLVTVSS
# VL: B1 VL with F30H, R31S, Q92N
# notes: also called SS-26191
# B5: 2G10.303 (antibody, human IgG1, kappa, N297G, V domains shown)
# VH: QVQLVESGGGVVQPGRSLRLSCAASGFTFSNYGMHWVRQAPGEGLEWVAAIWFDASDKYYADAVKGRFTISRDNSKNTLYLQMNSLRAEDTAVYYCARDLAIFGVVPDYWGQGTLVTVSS
# VL: B1 VL with F30D
# notes: also called SS-26180
# B6: 2G10.315 (antibody, human IgG1, kappa, N297G, V domains shown)
# VH: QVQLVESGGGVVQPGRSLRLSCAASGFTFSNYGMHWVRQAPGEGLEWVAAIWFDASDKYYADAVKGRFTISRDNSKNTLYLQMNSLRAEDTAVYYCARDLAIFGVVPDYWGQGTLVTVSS
# VL: B1 VL with F30L, R31T
# notes: also called SS-26192
# B7: 2G10.324 (antibody, human IgG1, kappa, N297G, V domains shown)
# VH: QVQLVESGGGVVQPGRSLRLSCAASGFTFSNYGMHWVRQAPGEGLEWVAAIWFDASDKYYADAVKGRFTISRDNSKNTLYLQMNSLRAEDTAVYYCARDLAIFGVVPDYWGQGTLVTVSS
# VL: B1 VL with F30L, R31S
# B8: 2G10.307 (antibody, human IgG1, kappa, N297G, V domains shown)
# VH: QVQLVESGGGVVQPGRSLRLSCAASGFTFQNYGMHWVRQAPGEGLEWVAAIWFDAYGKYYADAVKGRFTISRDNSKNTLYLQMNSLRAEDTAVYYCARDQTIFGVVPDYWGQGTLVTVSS
# VL: B1 VL with F30D, Q92N, N93Q
# notes: also called SS-26184
# B9: 2G10.337 (antibody, human IgG1, kappa, N297G, V domains shown)
# VH: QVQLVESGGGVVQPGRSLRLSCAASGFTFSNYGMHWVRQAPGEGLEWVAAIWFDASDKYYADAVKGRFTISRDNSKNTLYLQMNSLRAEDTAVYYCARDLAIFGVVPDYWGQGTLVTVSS
# VL: B1 VL with F30D, R31V, H32N, Q92N, N93Q
# notes: also called SS-26214
# B10: 2G10.327 (antibody, human IgG1, kappa, N297G, V domains shown)
# VH: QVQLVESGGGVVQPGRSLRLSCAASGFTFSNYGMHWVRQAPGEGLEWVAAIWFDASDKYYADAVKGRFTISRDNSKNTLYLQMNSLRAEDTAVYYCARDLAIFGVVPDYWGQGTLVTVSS
# VL: B1 VL with F30H, R31S, Q92N, N93Q
# B11: 2G10.323 (antibody, human IgG1, kappa, N297G, V domains shown)
# VH: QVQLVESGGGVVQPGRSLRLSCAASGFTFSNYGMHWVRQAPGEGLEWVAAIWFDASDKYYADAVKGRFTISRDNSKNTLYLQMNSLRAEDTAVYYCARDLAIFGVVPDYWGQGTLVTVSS
# VL: B1 VL with F30H
# B12: 2G10.313 (antibody, human IgG1, kappa, N297G, V domains shown)
# VH: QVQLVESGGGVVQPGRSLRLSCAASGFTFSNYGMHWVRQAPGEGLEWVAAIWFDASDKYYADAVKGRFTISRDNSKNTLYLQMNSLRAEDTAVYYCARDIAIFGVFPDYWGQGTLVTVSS
# VL: B1 VL with F30D, Q92N, N93Q
# notes: also called SS-26190
# B13: 2G10.333 (antibody, human IgG1, kappa, N297G, V domains shown)
# VH: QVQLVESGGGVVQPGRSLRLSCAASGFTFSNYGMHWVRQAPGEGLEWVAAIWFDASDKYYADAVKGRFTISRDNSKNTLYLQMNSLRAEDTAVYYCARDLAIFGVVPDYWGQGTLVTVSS
# VL: B1 VL with F30S, N93H
# notes: also called SS-26210
# B14: 2G10.318 (antibody, human IgG1, kappa, N297G, V domains shown)
# VH: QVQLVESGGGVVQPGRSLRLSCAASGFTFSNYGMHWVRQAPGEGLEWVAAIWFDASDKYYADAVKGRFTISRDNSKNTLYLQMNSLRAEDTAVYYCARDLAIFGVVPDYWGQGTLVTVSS
# VL: B1 VL with F30L, R31S, Q92N
# B15: 2G10.321 (antibody, human IgG1, kappa, N297G, V domains shown)
# VH: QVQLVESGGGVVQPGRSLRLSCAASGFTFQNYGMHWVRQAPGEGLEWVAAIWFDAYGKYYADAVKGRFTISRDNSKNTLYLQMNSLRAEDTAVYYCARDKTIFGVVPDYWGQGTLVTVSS
# VL: B1 VL with F30N, Q92N, N93Q
# B16: 2G10.305 (antibody, human IgG1, kappa, N297G, V domains shown)
# VH: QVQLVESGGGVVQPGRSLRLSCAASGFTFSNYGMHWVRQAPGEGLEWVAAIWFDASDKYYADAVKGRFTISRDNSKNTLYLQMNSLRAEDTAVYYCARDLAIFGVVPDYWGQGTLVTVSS
# VL: B1 VL with F30D, R31V, H32N, E50N
# notes: also called SS-26182
# B17: 2G10.329 (antibody, human IgG1, kappa, N297G, V domains shown)
# VH: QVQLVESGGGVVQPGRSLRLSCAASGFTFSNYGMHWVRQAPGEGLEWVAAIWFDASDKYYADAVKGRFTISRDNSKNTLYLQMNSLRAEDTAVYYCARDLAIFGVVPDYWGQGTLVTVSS
# VL: B1 VL with F30E, R31Q, Q92N
# notes: also called SS-26206
# B18: 2G10.335 (antibody, human IgG1, kappa, N297G, V domains shown)
# VH: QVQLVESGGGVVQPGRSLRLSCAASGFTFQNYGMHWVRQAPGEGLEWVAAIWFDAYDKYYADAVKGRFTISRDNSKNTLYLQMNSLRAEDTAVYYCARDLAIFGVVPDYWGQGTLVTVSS
# VL: B1 VL with F30T, R31S, Q92N, N93Q
# notes: also called SS-26212
# B19: 2G10.332 (antibody, human IgG1, kappa, N297G, V domains shown)
# VH: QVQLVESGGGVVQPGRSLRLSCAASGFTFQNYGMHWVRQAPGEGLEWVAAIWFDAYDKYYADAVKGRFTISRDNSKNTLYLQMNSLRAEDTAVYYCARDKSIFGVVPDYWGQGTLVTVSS
# VL: B1 VL with F30L, R31S, Q92N
# notes: also called SS-26209
# B20: 2G10.311 (antibody, human IgG1, kappa, N297G, V domains shown)
# VH: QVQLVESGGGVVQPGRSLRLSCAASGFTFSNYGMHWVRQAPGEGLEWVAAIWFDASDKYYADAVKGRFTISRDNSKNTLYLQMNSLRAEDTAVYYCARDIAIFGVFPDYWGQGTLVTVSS
# VL: B1 VL with F30N, R31V, E50Q, Q92N, N93Q
# notes: also called SS-26188
# B21: 2G10.331 (antibody, human IgG1, kappa, N297G, V domains shown)
# VH: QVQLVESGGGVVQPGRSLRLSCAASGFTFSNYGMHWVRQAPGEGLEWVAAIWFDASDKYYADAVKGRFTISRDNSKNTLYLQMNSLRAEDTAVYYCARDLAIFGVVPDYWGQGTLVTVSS
# VL: B1 VL with F30D, R31L
# notes: also called SS-26208
# B22: 2G10.306 (antibody, human IgG1, kappa, N297G, V domains shown)
# VH: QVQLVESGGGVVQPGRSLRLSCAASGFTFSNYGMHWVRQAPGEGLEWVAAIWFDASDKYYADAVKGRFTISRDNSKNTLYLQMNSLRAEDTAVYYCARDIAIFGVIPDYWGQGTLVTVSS
# VL: B1 VL with F30L, R31T
# notes: also called SS-26183
# B23: 2G10.312 (antibody, human IgG1, kappa, N297G, V domains shown)
# VH: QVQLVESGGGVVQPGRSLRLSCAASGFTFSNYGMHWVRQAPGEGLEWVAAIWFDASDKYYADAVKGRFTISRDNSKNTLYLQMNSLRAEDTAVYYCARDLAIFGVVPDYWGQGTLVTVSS
# VL: B1 VL with R31E, Q92N
# notes: also called SS-26189
# B24: 2G10.328 (antibody, human IgG1, kappa, N297G, V domains shown)
# VH: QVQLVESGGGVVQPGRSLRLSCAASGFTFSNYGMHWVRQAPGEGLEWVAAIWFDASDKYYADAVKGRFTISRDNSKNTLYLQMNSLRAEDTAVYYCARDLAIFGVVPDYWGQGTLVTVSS
# VL: B1 VL with F30S, R31E
# B25: 2G10.308 (antibody, human IgG1, kappa, N297G, V domains shown)
# VH: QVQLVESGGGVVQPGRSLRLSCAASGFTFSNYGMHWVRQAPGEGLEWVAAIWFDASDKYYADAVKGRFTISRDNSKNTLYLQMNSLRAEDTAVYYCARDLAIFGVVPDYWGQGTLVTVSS
# VL: B1 VL with R31S, N93Q
# notes: also called SS-26185
# B26: 2G10.302 (antibody, human IgG1, kappa, N297G, V domains shown)
# VH: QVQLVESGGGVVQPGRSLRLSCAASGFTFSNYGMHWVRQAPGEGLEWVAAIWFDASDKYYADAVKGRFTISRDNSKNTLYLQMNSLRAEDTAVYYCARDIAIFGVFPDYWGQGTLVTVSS
# VL: B1 VL with R31E, Q92N
# notes: also called SS-26179
# B27: 2G10.304 (antibody, human IgG1, kappa, N297G, V domains shown)
# VH: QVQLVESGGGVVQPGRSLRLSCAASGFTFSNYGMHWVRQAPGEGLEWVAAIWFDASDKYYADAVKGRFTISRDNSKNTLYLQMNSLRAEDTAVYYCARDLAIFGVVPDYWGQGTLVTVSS
# VL: B1 VL with F30N
# notes: also called SS-26181
# B28: 2G10.301 (antibody, human IgG1, kappa, N297G, V domains shown)
# VH: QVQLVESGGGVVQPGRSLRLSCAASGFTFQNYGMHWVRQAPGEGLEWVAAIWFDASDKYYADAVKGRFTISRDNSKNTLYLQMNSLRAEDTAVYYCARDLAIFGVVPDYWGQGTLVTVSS
# VL: B1 VL with R31S
# notes: also called SS-26178
# B29: 2G10.309 (antibody, human IgG1, kappa, N297G, V domains shown)
# VH: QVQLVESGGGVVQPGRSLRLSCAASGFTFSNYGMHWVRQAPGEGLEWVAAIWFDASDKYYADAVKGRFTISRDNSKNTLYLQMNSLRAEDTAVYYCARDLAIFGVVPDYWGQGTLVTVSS
# VL: B1 VL with F30E
# notes: also called SS-26186
# B30: 2G10.325 (antibody, human IgG1, kappa, N297G, V domains shown)
# VH: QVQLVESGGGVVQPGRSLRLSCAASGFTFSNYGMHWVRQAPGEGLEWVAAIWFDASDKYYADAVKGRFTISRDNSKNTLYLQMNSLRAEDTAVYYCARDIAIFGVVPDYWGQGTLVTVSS
# VL: B1 VL with R31E, Q92N, N93Q
# B31: 2G10.338 (antibody, human IgG1, kappa, N297G, V domains shown)
# VH: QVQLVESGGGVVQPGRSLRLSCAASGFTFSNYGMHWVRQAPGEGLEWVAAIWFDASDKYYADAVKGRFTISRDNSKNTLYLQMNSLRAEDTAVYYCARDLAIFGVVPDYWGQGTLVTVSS
# VL: B1 VL with F30H, R31H, Q92N, N93Q
# B32: 2G10.334 (antibody, human IgG1, kappa, N297G, V domains shown)
# VH: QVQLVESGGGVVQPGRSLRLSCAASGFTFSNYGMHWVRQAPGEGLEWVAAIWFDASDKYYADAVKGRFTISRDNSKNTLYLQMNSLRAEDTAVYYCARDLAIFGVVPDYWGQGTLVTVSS
# VL: B1 VL with F30N, R31L, H32N, E50Q, Q92N, N93Q
# notes: also called SS-26211
# B33: 2G10.326 (antibody, human IgG1, kappa, N297G, V domains shown)
# VH: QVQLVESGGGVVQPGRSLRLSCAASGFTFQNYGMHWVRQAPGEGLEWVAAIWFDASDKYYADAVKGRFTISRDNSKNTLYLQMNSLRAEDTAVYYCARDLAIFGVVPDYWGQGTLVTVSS
# VL: B1 VL with F30L, R31S, N93Q
# B34: 2G10.317 (antibody, human IgG1, kappa, N297G, V domains shown)
# VH: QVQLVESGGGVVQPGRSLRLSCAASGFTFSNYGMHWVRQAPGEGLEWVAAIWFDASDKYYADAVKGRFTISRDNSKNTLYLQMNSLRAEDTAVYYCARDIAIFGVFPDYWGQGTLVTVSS
# VL: B1 VL with F30N, N93Q
# notes: also called SS-26194
# B35: 2G10.322 (antibody, human IgG1, kappa, N297G, V domains shown)
# VH: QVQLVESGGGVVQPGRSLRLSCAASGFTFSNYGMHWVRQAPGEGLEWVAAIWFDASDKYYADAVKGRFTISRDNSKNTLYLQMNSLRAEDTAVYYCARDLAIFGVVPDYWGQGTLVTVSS
# VL: B1 VL with F30M, R31S
# B36: 2G10.339 (antibody, human IgG1, kappa, N297G, V domains shown)
# VH: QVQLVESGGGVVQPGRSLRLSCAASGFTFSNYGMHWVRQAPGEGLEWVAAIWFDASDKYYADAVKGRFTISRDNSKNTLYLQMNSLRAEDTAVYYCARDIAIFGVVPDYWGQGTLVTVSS
# VL: B1 VL with R31Q, H32N, E50Q, Q92N, N93Q
# B37: 2G10.330 (antibody, human IgG1, kappa, N297G, V domains shown)
# VH: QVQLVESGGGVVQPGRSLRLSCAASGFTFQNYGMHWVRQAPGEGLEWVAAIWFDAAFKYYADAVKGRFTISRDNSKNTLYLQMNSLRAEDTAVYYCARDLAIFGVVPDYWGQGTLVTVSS
# VL: B1 VL with F30D, R31Q, E50Q
# notes: also called SS-26207
# Target: T1, huGIPR ECD (human, UniProt P48546 21-129, limits assumed)
# T1 construct: Soluble analyte of the Biacore assay; also called human GIPR extracellular domain
# T1 sequence: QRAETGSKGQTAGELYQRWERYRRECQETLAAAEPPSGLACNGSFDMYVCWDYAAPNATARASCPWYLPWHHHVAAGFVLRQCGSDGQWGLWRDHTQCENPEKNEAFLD
# Experiment: SPR (Biacore T200), mAb captured via goat anti-huFc, 200 nM huGIPR ECD analyte
# Procedure: Immobilization of Goat-anti-huFc antibody to a S-CM5 sensor chip surface was performed according to manufacturer's instructions. The Biacore instrument running buffer is 0.005% P20/PBS 1×, pH7.4, no calcium chloride, no magnesium chloride. Briefly, carboxyl groups on the sensor chip surfaces were activated by injecting 60 μL of a mixture containing 0.2 M N-ethyl-N′-(dimethylaminopropyl) carbodiimide (EDC) and 0.05 M N-hydroxysuccinimide (NHS). Goat-anti-huFc antibody was diluted in 10 mM sodium acetate, pH 4.0 at 20 μg/ml and injected over the activated chip surface at 30 uL/min for 6 minutes. Excess reactive groups on the surfaces were deactivated by injecting 60 μL of 1 M ethanolamine. Final immobilized level was ˜8000 resonance units (RU).
# Binding assays were carried out on the immobilized goat anti-huFc antibody surface by Biacore T200. The experiment was performed at 25° C. The instrument running buffer was 0.005% P20/PBS. The goat anti-huFc capture antibody was covalently attached to the sensor chip surface via standard amine coupling to flow cells channel 1-4. The anti-huGIPR antibodies were diluted in sample buffer (0.1 mg/ml BSA, 0.005% P20, PBS) to ˜10 nM then captured to flow cells channel 2, 3, 4. Flow cell channel 1 was as a blank reference surface without injection of anti-huGIPR antibody. The captured antibody response range was ˜250 RU. Then 200 nM huGIPR ECD was injected over the goat anti-huFc antibody captured anti-huGIPR antibody surfaces at flow rate 50 ul/min for 3 minutes. After a 10 minutes dissociation, each surface was regenerated by injecting 10 mM Glycine, pH 1.5 for 30 seconds twice.
row,koff,Binder
1,< 5e-05 s⁻¹,B1
2,0.0002 s⁻¹,B2
3,6e-05 s⁻¹,B3
4,6e-05 s⁻¹,B4
5,7e-05 s⁻¹,B5
6,< 5e-05 s⁻¹,B6
7,< 5e-05 s⁻¹,B7
8,6e-05 s⁻¹,B8
9,< 5e-05 s⁻¹,B9
10,< 5e-05 s⁻¹,B10
11,< 5e-05 s⁻¹,B11
12,< 5e-05 s⁻¹,B12
13,< 5e-05 s⁻¹,B13
14,< 5e-05 s⁻¹,B14
15,< 5e-05 s⁻¹,B15
16,< 5e-05 s⁻¹,B16
17,6e-05 s⁻¹,B17
18,6e-05 s⁻¹,B18
19,6e-05 s⁻¹,B19

row,koff,Binder
1,6e-05 s⁻¹,B20
2,5e-05 s⁻¹,B21
3,< 5e-05 s⁻¹,B22
4,< 5e-05 s⁻¹,B23
5,7e-05 s⁻¹,B24
6,< 5e-05 s⁻¹,B25
7,< 5e-05 s⁻¹,B26
8,< 5e-05 s⁻¹,B27
9,7e-05 s⁻¹,B28
10,< 5e-05 s⁻¹,B29
11,< 5e-05 s⁻¹,B30
12,8e-05 s⁻¹,B31
13,6e-05 s⁻¹,B32
14,6e-05 s⁻¹,B33
15,< 5e-05 s⁻¹,B34
16,6e-05 s⁻¹,B35
17,7e-05 s⁻¹,B36
18,< 5e-05 s⁻¹,B37

# Target: T2, human GIPR (human, UniProt P48546 22-466)
# T2 sequence: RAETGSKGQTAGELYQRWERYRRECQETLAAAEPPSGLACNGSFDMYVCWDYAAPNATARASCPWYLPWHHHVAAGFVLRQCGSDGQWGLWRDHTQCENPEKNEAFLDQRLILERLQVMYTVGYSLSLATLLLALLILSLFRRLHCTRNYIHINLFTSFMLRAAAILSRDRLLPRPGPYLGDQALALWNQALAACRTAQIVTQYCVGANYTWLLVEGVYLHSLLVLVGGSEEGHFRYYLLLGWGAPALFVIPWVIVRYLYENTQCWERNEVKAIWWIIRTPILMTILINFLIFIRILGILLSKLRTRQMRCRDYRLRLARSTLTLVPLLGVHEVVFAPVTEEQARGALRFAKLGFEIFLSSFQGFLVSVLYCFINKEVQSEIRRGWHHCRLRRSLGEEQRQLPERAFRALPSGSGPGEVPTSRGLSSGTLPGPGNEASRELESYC
# Experiment: cell-based or functional assay
row,cAMP IC50,Binder
1,14.7 nM,B1
2,29.6 nM,B2
3,7.9 nM,B3
4,17.5 nM,B4
5,23.1 nM,B5
6,22 nM,B6
7,14.1 nM,B7
8,17.4 nM,B8
9,32.5 nM,B9
10,19.3 nM,B10
11,17.4 nM,B11
12,20.7 nM,B12
13,12.1 nM,B13
14,20.9 nM,B14
15,7.46 nM,B15
16,27.2 nM,B16
17,26.8 nM,B17
18,25.9 nM,B18
19,12.9 nM,B19

row,cAMP IC50,Binder
1,14.9 nM,B20
2,19.7 nM,B21
3,20.7 nM,B22
4,23.2 nM,B23
5,24.4 nM,B24
6,18.3 nM,B25
7,19.9 nM,B26
8,16.9 nM,B27
9,17.6 nM,B28
10,29.5 nM,B29
11,26.2 nM,B30
12,23.4 nM,B31
13,13.7 nM,B32
14,26.6 nM,B33
15,13.7 nM,B34
16,17.9 nM,B35
17,22.6 nM,B36
18,18.6 nM,B37
